Measurements: US20180355059A1 (PHARMAEXPLORER, published 2018)

Target: T1, recombinant human PCSK9-His protein (Immunogen A) (human, UniProt Q8NBP7 31-692, limits assumed, biotinylated in the ELISA assays)
T1 construct: also called hPCSK9-His; His-tagged hPCSK9; not shown: His tag
Assay: SPR, Biacore;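 also: antibodies captured via immobilized anti-human Fc IgG on a CM5 chip, PCSK9 as analyte in HBS-EP+ buffer, 400 s dissociation, reference flow cell subtracted, 1:1 binding model fit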

Row | Binder | Kd | koff | kon
1 | AF-mab023_01 (antibody, V domains shown) VH: EVQLVESGGGLVQPGGSLRLSCAASGITFSSYWMSWVRQAPGKGLEWVANIKQDGSEKYYVDSVKGRFTISRDIAKNSLYLQMNSLRAEDTAVYYCARDRGTYYYGIGSYNYYYYGMDVWGQGTTVTVSS VL: not shown | 0.36 nM | 0.000115 s⁻¹ | 320000 M⁻¹ s⁻¹
2 | AF-mab023_18 (antibody, V domains shown) VH: EVQLVESGGGLVQPGGSLRLSCAASGITFSSYWMSWVRQAPGKGLEWVANIKQDGSEKYYVDSVKGRFTISRDIAKNSLYLQMNSLRAEDTAVYYCARDRGTYYYADGDYNYYYYGMDVWGQGTTVTVSS VL: not shown | 0.292 nM | 0.000161 s⁻¹ | 551000 M⁻¹ s⁻¹
3 | AF-mab023_13 (antibody, V domains shown) VH: EVQLVESGGGLVQPGGSLRLSCAASGITFSSYWMSWVRQAPGKGLEWVANIKQDGSEKYYVDSVKGRFTISRDIAKNSLYLQMNSLRAEDTAVYYCARDRGTYYYTEGSYNYYYYGMDVWGQGTTVTVSS VL: not shown | 0.392 nM | 0.000178 s⁻¹ | 455000 M⁻¹ s⁻¹
4 | AF-mab023_07 (antibody, V domains shown) VH: EVQLVESGGGLVQPGGSLRLSCAASGITFSSYWMSWVRQAPGKGLEWVANIKQDGSEKYYVDSVKGRFTISRDIAKNSLYLQMNSLRAEDTAVYYCARDRGTYYYQQGSYNYYYYGMDVWGQGTTVTVSS VL: not shown | 0.653 nM | 0.000214 s⁻¹ | 327000 M⁻¹ s⁻¹
5 | AF-mab023_05 (antibody, V domains shown) VH: EVQLVESGGGLVQPGGSLRLSCAASGITFSSYWMSWVRQAPGKGLEWVANIKQDGSEKYYVDSVKGRFTISRDIAKNSLYLQMNSLRAEDTAVYYCARDRGTYYHWLGSYNYYYYGMDVWGQGTTVTVSS VL: not shown | 0.207 nM | 6.31e-05 s⁻¹ | 305000 M⁻¹ s⁻¹
6 | AF-mab023_04 (antibody, V domains shown) VH: EVQLVESGGGLVQPGGSLRLSCAASGITFSSYWMSWVRQAPGKGLEWVANIKQDGSEKYYVDSVKGRFTISRDIAKNSLYLQMNSLRAEDTAVYYCARDRGTYYYDSGGYNYYYYGMDVWGQGTTVTVSS VL: not shown | 0.409 nM | 0.000239 s⁻¹ | 584000 M⁻¹ s⁻¹
7 | AF-mab023_19 (antibody, V domains shown) VH: EVQLVESGGGLVQPGGSLRLSCAASGITFSSYWMSWVRQAPGKGLEWVANIKQDGSEKYYVDSVKGRFTISRDIAKNSLYLQMNSLRAEDTAVYYCARDRGTYYYASGKYNYYYYGMDVWGQGTTVTVSS VL: not shown | 1.55 nM | 0.000351 s⁻¹ | 226000 M⁻¹ s⁻¹
8 | AF-mab023_15 (antibody, V domains shown) VH: EVQLVESGGGLVQPGGSLRLSCAASGITFSSYWMSWVRQAPGKGLEWVANIKQDGSEKYYVDSVKGRFTISRDIAKNSLYLQMNSLRAEDTAVYYCARDRGTYYYQDGNYNYYYYGMDVWGQGTTVTVSS VL: not shown | 0.381 nM | 0.000182 s⁻¹ | 477000 M⁻¹ s⁻¹
9 | AF-mab023_08 (antibody, V domains shown) VH: EVQLVESGGGLVQPGGSLRLSCAASGITFSSYWMSWVRQAPGKGLEWVANIKQDGSEKYYVDSVKGRFTISRDIAKNSLYLQMNSLRAEDTAVYYCARDRGTYYIADGSYNYYYYGMDVWGQGTTVTVSS VL: not shown | 0.443 nM | 0.000158 s⁻¹ | 357000 M⁻¹ s⁻¹
10 | AF-mab023_03 (antibody, V domains shown) VH: EVQLVESGGGLVQPGGSLRLSCAASGITFSSYWMSWVRQAPGKGLEWVANIKQDGSEKYYVDSVKGRFTISRDIAKNSLYLQMNSLRAEDTAVYYCARDRGTYYYASGSYNYYYYGMDVWGQGTTVTVSS VL: not shown | 1.24 nM | 0.00046 s⁻¹ | 370000 M⁻¹ s⁻¹
11 | AF-mab023_11 (antibody, V domains shown) VH: EVQLVESGGGLVQPGGSLRLSCAASGITFSSYWMSWVRQAPGKGLEWVANIKQDGSEKYYVDSVKGRFTISRDIAKNSLYLQMNSLRAEDTAVYYCARDRGTYYYQEGSYNYYYYGMDVWGQGTTVTVSS VL: not shown | 0.26 nM | 0.000144 s⁻¹ | 553000 M⁻¹ s⁻¹
12 | AF-mab023_16 (antibody, V domains shown) VH: EVQLVESGGGLVQPGGSLRLSCAASGITFSSYWMSWVRQAPGKGLEWVANIKQDGSEKYYVDSVKGRFTISRDIAKNSLYLQMNSLRAEDTAVYYCARDRGTYYYQDGKYNYYYYGMDVWGQGTTVTVSS VL: not shown | 0.447 nM | 0.000143 s⁻¹ | 319000 M⁻¹ s⁻¹
13 | AF-mab023_12 (antibody, V domains shown) VH: EVQLVESGGGLVQPGGSLRLSCAASGITFSSYWMSWVRQAPGKGLEWVANIKQDGSEKYYVDSVKGRFTISRDIAKNSLYLQMNSLRAEDTAVYYCARDRGTYYYTEGGYNYYYYGMDVWGQGTTVTVSS VL: not shown | 0.176 nM | 8.47e-05 s⁻¹ | 480000 M⁻¹ s⁻¹
14 | AF-mab023_06 (antibody, V domains shown) VH: EVQLVESGGGLVQPGGSLRLSCAASGITFSSYWMSWVRQAPGKGLEWVANIKQDGSEKYYVDSVKGRFTISRDIAKNSLYLQMNSLRAEDTAVYYCARDRGTYYFQSGSYNYYYYGMDVWGQGTTVTVSS VL: not shown | 0.225 nM | 6.59e-05 s⁻¹ | 293000 M⁻¹ s⁻¹
15 | AF-mab023_17 (antibody, V domains shown) VH: EVQLVESGGGLVQPGGSLRLSCAASGITFSSYWMSWVRQAPGKGLEWVANIKQDGSEKYYVDSVKGRFTISRDIAKNSLYLQMNSLRAEDTAVYYCARDRGTYYTGMGEYNYYYYGMDVWGQGTTVTVSS VL: not shown | 0.31 nM | 0.000109 s⁻¹ | 351000 M⁻¹ s⁻¹
16 | AF-mab023_02 (antibody, V domains shown) VH: EVQLVESGGGLVQPGGSLRLSCAASGITFSSYWMSWVRQAPGKGLEWVANIKQDGSEKYYVDSVKGRFTISRDIAKNSLYLQMNSLRAEDTAVYYCARDRGTYYYWLGTYNYYYYGMDVWGQGTTVTVSS VL: not shown | 0.268 nM | 8.2e-05 s⁻¹ | 306000 M⁻¹ s⁻¹
17 | AF-mab023_14 (antibody, V domains shown) VH: EVQLVESGGGLVQPGGSLRLSCAASGITFSSYWMSWVRQAPGKGLEWVANIKQDGSEKYYVDSVKGRFTISRDIAKNSLYLQMNSLRAEDTAVYYCARDRGTYYYADGGYNYYYYGMDVWGQGTTVTVSS VL: not shown | 0.306 nM | 0.000164 s⁻¹ | 534000 M⁻¹ s⁻¹
18 | AF-mab023_10 (antibody, V domains shown) VH: EVQLVESGGGLVQPGGSLRLSCAASGITFSSYWMSWVRQAPGKGLEWVANIKQDGSEKYYVDSVKGRFTISRDIAKNSLYLQMNSLRAEDTAVYYCARDRGTYYYDSGRYNYYYYGMDVWGQGTTVTVSS VL: not shown | 1.05 nM | 0.000328 s⁻¹ | 313000 M⁻¹ s⁻¹
